Laboratory results from US20140030725.

Target: MMP-2 sensor (1A5 variant backbone with the human MMP-2 recognition site PLGMWSR, N-terminal GST tag with TEV site, C-terminal 5xHQ tag)

B1: Activated MMP-2 (Anaspec) (protein)
chain: YNFFPRKPKWDKNQITYRIIGYTPDLDPETVDDAFARAFQVWSDVTPLRFSRIHDGEADIMINFGRWEHGDGYPFDGKDGLLAHAFAPGTGVGGDSHFDDDELWTLGEGQVVRVKYGNADGEYCKFPFLFNGKEYNSCTDTGRSDGFLWCSTTYNFEKDGKYGFCPHEALFTMGGNAEGQPCKFPFRFQGTSYDSCTTEGRTDGYRWCGTTEDYDRDKKYGFCPETAMSTVGGNSEGAPCVFPFTFLGNKYESCTSAGRSDGKMWCATTANYDDDRKWGFCPDQGYSLFLVAAHEFGHAMGLEHSQDPGALMAPIYTYTKNFRLSQDDIKGIQELYGASPDIDLGTGPTPTLGPVTPEICKQDIVFDGIAQIRGEIFFFKDRFIWRTVTPRDKPMGPLLVATFWPELPEKIDAVYEAPQEEKAVFFAGNEYWIYSASTLERGYPKPLTSLGLPPDVQRVDAAFNWSKNKKTYIFAGDKFWRYNEVKKKMDPGFPKLIADAWNAIPDNLDAVVDLQGGGHSYFFKGAYYLKLENQSLKSVKFGSIKSDWLGC
luminescence, fold increase over control (background from MMP-2 sensor); least amount of MMP-2 detected: can be used to detect as little as 0.75 ng protein
